Measurements taken from patent US20120021972A1 (CADILA HEALTHCARE, published 2012).
Starred links: 1 amine or outer side, 2 acyl side, 3 side chain; linkers in the order of their positions; H or OH if unused. Non-standard residues stand in square brackets, D forms with d. No end group written: not given here. *: point of attachment. NMe2F‑APPA = N-methyl-2-amino-5-(2-fluorophenyl)pentanoic acid, CN([C@@H](CCCc1ccccc1F)C(=O)[*:2])[*:1]; 2,4‑diF‑APPA = 2-amino-5-(2,4-difluorophenyl)pentanoic acid, O=C([C@H](CCCc1ccc(F)cc1F)N[*:1])[*:2]; AMCB = 2-amino-5-(4-chloro-2-methylphenyl)pentanoic acid, Cc1cc(Cl)ccc1CCC[C@H](N[*:1])C(=O)[*:2]; ACPP = 2-amino-5-(3-chlorophenyl)pentanoic acid, O=C([C@H](CCCc1cccc(Cl)c1)N[*:1])[*:2]; 2F,4CF3‑APPA = 2-amino-5-(2-fluoro-4-(trifluoromethyl)phenyl)pentanoic acid; Bip(2'-Et-4'-OMe) = CCc1cc(OC)ccc1-c1ccc(C[C@H](N)C(=O)O)cc1; Nva(5-(3,5-Me2Ph)) = Cc1cc(C)cc(CCC[C@H](N)C(=O)O)c1; 2F‑APPA = 2-amino-5-(2-fluorophenyl)pentanoic acid; αMePhe(2-F) = C[C@](N)(Cc1ccccc1F)C(=O)O; NMeBip(OMe) = N-methylated Bip(OMe); hhPhe = N[C@@H](CCCc1ccccc1)C(=O)O; 2,4‑diCl‑APPA = not defined here; NMeD = CN[C@@H](CC(=O)O)C(=O)O; aThr = C[C@H](O)[C@H](N)C(=O)O; αMeP = C[C@@]1(C(=O)O)CCCN1; NMeAPPA = not defined here; Ac5c = NC1(C(=O)O)CCCC1; CNB = not defined here; Aib = CC(C)(N)C(=O)O; Moc = COC(=O)*

Each binder was assayed against human glucagon receptor (human, UniProt P47871 26-477) (assay: cell-based or functional assay).

Row | Binder | inhibition of cAMP production, 1 nM [pmol/ml/µg prt] | inhibition of cAMP production, 10 nM [pmol/ml/µg prt] | inhibition of cAMP production, 100 nM [pmol/ml/µg prt] | inhibition of cAMP production, 1 µM [pmol/ml/µg prt] | inhibition of cAMP production, 10 µM [pmol/ml/µg prt]
1 | Moc-H[Aib]QGT[αMePhe(2-F)]TSD[Bip(2'-Et-4'-OMe)][2F‑APPA] (also: thioamide bonds between residues 9-10 and 10-11) [Seq. ID. No. 172: CH3OCO-H-Aib-QGT-(α-Me-2F-Phe)-TSD-(C═S)-Bip(OMe)-(C═S)-(2F-APPA)] | 4 | 2 | 0 | 0 | 0
2 | H[Aib]QG[aThr][αMePhe(2-F)][aThr]SD[Bip(2'-Et-4'-OMe)][2F‑APPA] (also: reduced (CH2) bond between 10 and 11) [Seq. ID. No. 191: H-Aib-QG-T(allo)-(α-Me-2F-Phe)-T(allo)-SD-Bip(OMe)-(CH2)-(2F-APPA)] | 4 | 2 | 2 | 0 | 0
3 | Ac-H[Aib]QG[aThr][αMePhe(2-F)][aThr]SD[Bip(2'-Et-4'-OMe)][hhPhe] (also: reduced (CH2) bonds between 9-10 and 10-11) [Seq. ID. No. 197: CH3CO-H-Aib-QG-T(allo)-(α-Me-2F-Phe)-T(allo)-SD-(CH2)-Bip(OMe)-(CH2)-(APPA)] | 14 | 11 | 7 | 3 | 0
4 | H[Aib]QG[aThr][αMePhe(2-F)][aThr]SD[Bip(2'-Et-4'-OMe)][hhPhe] (also: reduced (CH2) bond between 10 and 11) [Seq. ID. No. 189: H-Aib-QG-T(allo)-(α-Me-2F-Phe)-T(allo)-SD-Bip(OMe)-(CH2)-(APPA)] | 3 | 1 | 0 | 0 | 0
5 | H[Aib]QGTFTSD[Bip(2'-Et-4'-OMe)][2F,4CF3‑APPA] [Seq. ID. No. 65: H-Aib-QGTFTSD-Bip(OMe)-(2F,4CF3-APPA)] | 10 | 8 | 6 | 4 | 1
6 | H[Aib][CNB]GTFTSD[Bip(2'-Et-4'-OMe)][ACPP] (reading uncertain) [Seq. ID. No. 31: H-Aib-(CNB)-GTFTSD-Bip(OMe)-(ACPP)] | 6 | 5 | 2 | 0 | 0
7 | H[Aib][CNB]GTFTSD[Bip(2'-Et-4'-OMe)][2,4‑diF‑APPA] (reading uncertain) [Seq. ID. No. 78: H-Aib-(CNB)-GTFTSD-Bip(OMe)-(2,4-diF-APPA)] | 22 | 21 | 20 | 18 | 18
8 | Moc-H[Aib]QG[aThr][αMePhe(2-F)][aThr]SD[Bip(2'-Et-4'-OMe)][2F‑APPA] (also: reduced (CH2) bond between 10 and 11) [Seq. ID. No. 188: CH3OCO-H-Aib-QG-T(allo)-(α-Me-2F-Phe)-T(allo)-SD-Bip(OMe)-(CH2)-(2F-APPA)] | 5 | 3 | 1 | 0 | 0
9 | Moc-H[Aib]QG[aThr][αMePhe(2-F)][aThr]S[NMeD][NMeBip(OMe)][NMeAPPA] (reading uncertain) | 10 | 8 | 6 | 4 | 1
10 | Moc-H[Aib]QGT[αMePhe(2-F)]TSD[Bip(2'-Et-4'-OMe)][hhPhe] (also: thioamide bonds between residues 9-10 and 10-11) [Seq. ID. No. 170: CH3OCO-H-Aib-QGT-(α-Me-2F-Phe)-TSD-(C═S)-Bip(OMe)-(C═S)-(APPA)] | 6 | 5 | 2 | 0 | 0
11 | H[Aib][CNB]G[aThr][αMePhe(2-F)][aThr]SD[Bip(2'-Et-4'-OMe)][2F‑APPA] (reading uncertain; also: reduced (CH2) bond between 10 and 11) [Seq. ID. No. 192: H-Aib-(CNB)-G-T(allo)-(α-Me-2F-Phe)-T(allo)-SD-Bip(OMe)-(CH2)-(2F-APPA)] | 4 | 2 | 0 | 0 | 0
12 | H[Aib][CNB]G[aThr][αMePhe(2-F)][aThr]SD[Bip(2'-Et-4'-OMe)][NMe2F‑APPA] (reading uncertain) [Seq. ID. No. 132: H-Aib-(CNB)-G-T(allo)-(α-Me-2F-Phe)-T(allo)-SD-Bip(OMe)-((NMe)(2F-APPA))] | 15 | 12 | 8 | 4 | 2
13 | Ac-H[Aib]QGT[αMePhe(2-F)]TSD[Bip(2'-Et-4'-OMe)][2F‑APPA] (also: reduced (CH2) bonds between 9-10 and 10-11) [Seq. ID. No. 195: CH3CO-H-Aib-QGT-(α-Me-2F-Phe)-TSD-(CH2)-Bip(OMe)-(CH2)-(2F-APPA)] | 15 | 12 | 8 | 4 | 2
14 | H[Aib][CNB]G[aThr][αMePhe(2-F)][aThr]SD[NMeBip(OMe)][NMeAPPA] (reading uncertain) [Seq. ID. No. 142: H-Aib-(CNB)-G-T(allo)-(α-Me-2F-Phe)-T(allo)-SD-((NMe)Bip(OMe))-((NMe)(APPA))] | 10 | 8 | 6 | 2 | 0
15 | H[Ac5c]QGTFTSD[Bip(2'-Et-4'-OMe)][AMCB] [Seq. ID. No. 28: H-(APP)-QGTFTSD-Bip(OMe)-(AMCB)] | 14 | 11 | 7 | 3 | 0
16 | Ac-H[Aib]QG[aThr][αMePhe(2-F)][aThr]SD[Bip(2'-Et-4'-OMe)][2F‑APPA] (also: reduced (CH2) bonds between 9-10 and 10-11) [Seq. ID. No. 199: CH3CO-H-Aib-QG-T(allo)-(α-Me-2F-Phe)-T(allo)-SD-(CH2)-Bip(OMe)-(CH2)-(2F-APPA)] | 4 | 3 | 0 | 0 | 0
17 | H[αMeP]QGTFTSD[Bip(2'-Et-4'-OMe)][hhPhe] [Seq. ID. No. 9: H-(α-Me-Pro)-QGTFTSD-Bip(OMe)-(APPA)] | 5 | 3 | 0 | 0 | 0
18 | HSQGTFTSD[Bip(2'-Et-4'-OMe)][2,4‑diCl‑APPA] (reading uncertain) [Seq. ID. No. 51: HSQGTFTSD-Bip(OMe)-(2,4-diCl-APPA)] | 5 | 3 | 0 | 0 | 0
19 | H-HSQGTFTSD[Bip(2'-Et-4'-OMe)][hhPhe]-NH2 [Seq. ID. No. 5: HSQGTFTSD-Bip(OMe)-(APPA)] | 6 | 5 | 3 | 0 | 0
20 | H[Aib]QG[aThr][αMePhe(2-F)][aThr]SD[Bip(2'-Et-4'-OMe)][hhPhe] (also: thioamide bonds between residues 9-10 and 10-11) [Seq. ID. No. 177: H-Aib-QG-T(allo)-(α-Me-2F-Phe)-T(allo)-SD-(C═S)-Bip(OMe)-(C═S)-(APPA)] | 0 | 0 | 0 | 0 | 0
21 | H[Ac5c]QGTFTSD[Bip(2'-Et-4'-OMe)][Nva(5-(3,5-Me2Ph))] [Seq. ID. No. 26: H-(APP)-QGTFTSD-Bip(OMe)-(ADMP)] | 15 | 12 | 8 | 4 | 2
22 | HSQGTFTSD[Bip(2'-Et-4'-OMe)][2F,4CF3‑APPA] [Seq. ID. No. 49: HSQGTFTSD-Bip(OMe)-(2F, 4CF3-APPA)] | 10 | 8 | 6 | 2 | 0
